Assay results published in article PMC9879077.
Where two headings read alike, the source gives them in different places.

What was measured:
c-Fos;c-Jun [1] = target: T1, c-Fos;c-Jun (mouse (cDNA from ST2 cells);mouse (cDNA …, UniProt P01101;P05627 1-380;1-334, |)); test: EMSA
c-Fos;c-Jun [2] = target: T1, c-Fos;c-Jun; test: EMSA; remark: listed apart in the source

T1 sequence (P01101 whole entry, chain 1 of 2): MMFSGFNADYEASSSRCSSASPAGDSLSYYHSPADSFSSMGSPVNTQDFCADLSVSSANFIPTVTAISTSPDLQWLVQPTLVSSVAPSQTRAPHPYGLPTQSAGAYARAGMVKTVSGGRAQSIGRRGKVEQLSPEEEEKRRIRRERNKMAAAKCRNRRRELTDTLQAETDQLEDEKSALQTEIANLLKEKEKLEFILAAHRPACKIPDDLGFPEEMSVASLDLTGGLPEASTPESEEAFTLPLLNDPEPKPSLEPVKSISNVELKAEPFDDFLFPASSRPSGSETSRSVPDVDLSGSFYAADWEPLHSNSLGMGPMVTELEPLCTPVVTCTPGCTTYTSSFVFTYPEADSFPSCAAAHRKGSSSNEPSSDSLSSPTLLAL
T1 sequence (P05627 whole entry, chain 2 of 2): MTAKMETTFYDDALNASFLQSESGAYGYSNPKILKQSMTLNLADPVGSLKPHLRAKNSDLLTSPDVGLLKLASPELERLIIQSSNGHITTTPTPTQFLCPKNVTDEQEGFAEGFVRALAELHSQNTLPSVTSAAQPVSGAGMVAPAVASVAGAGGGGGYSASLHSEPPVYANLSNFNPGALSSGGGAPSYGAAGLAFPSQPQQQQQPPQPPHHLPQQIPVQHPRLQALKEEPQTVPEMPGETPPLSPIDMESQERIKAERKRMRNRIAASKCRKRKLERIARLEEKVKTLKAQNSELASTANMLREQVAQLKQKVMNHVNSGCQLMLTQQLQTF

B1: Oligo incl TRE (dsDNA)
DNA 1: TGAGTCAATGAGTCAGCTGACTCATTGACTCA
DNA 2: GGTGAGTCAATGAGTCAGCTGACTCATTGACTCA
B1: binds (c-Fos;c-Jun [1]).

B2: Oligo incl mutant TRE (dsDNA)
DNA 1: TGTGACAATGTGACAGCTGTCACATTGTCACA
DNA 2: GGTGTGACAATGTGACAGCTGTCACATTGTCACA
B2: no binding (c-Fos;c-Jun [2]).
